Data reported in patent US20250003966.

Tested on: substrate protein (Seq Id no. 1) (URSCREENSARS-COV-2)

trypsin
cleavage bands on 15% SDS-PAGE (Sypro Ruby stain): We could clearly see the cleavage bands of expected molecular weight after gel staining
